The chains are these.
B1: Transcriptional coactivator YAP1 (Homo sapiens), P46937-3 (parent)
chain: MDPGQQPPPQPAPQGQGQPPSQPPQGQGPPSGPGQPAPAATQAAPQAPPAGHQIVHVRGDSETDLEALFNAVMNPKTANVPQTVPMRLRKLPDSFFKPPEPKSHSRQASTDAGTAGALTPQHVRAHSSPASLQLGAVSPGTLTPTGVVSGPAATPTAQHLRQSSFEIPDDVPLPAGWEMAKTSSGQRYFLNHIDQTTTWQDPRKAMLSQMNVTAPTSPPVQQNMMNSASAMNQRISQSAPVKQPPPLAPQSPQGGVMGGSNSNQQQQMRLQQLQMEKERLRLKQQELLRQVRPQELALRSQLPTLEQDGGTQNPVSSPGMSQELRTMTTNSSDPFLNSGTYHSRDESTDSGLSMSSYSVPRTPDDFLNSVDEMDTGDTINQSTLPSQQNRFPDYLEAIPGTNVDLGTLEGDGMNIEGEELMPSLQEALSSDILNDMESVLAATKLDKESFLTWL

The variants in the experiment derive from B1. To be noted: with ctnb1_human CTNNB1, P35222.
ctnb1_human CTNNB1, P35222, sequence (P35222 whole entry): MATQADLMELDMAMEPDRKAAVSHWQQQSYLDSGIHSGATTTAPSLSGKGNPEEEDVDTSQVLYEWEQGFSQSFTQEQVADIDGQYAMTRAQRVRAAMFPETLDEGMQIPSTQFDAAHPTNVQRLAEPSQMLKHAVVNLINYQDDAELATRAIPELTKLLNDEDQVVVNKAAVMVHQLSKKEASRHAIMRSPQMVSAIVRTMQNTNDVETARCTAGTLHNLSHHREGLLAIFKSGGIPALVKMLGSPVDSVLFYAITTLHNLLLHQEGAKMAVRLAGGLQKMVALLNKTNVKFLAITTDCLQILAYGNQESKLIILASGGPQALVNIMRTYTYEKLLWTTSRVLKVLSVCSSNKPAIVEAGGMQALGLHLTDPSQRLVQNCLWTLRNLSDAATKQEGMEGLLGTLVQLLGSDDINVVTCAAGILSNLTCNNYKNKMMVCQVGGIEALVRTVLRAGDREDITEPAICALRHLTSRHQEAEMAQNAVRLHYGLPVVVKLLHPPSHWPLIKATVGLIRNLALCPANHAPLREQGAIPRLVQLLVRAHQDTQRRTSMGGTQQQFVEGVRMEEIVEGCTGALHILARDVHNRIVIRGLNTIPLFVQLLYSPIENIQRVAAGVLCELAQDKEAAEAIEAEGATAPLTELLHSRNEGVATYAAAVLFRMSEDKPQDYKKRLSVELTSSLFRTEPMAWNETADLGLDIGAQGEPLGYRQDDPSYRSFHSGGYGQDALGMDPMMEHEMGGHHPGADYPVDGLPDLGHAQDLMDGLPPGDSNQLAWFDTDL
As to Y357F, the “effect of a mutation on the interaction” value was “increasing interaction strength”.

These data come from IntAct's records for PubMed 23245941.
